From patent US20210095041A1 (SURFACE ONCOLOGY, published 2021)

Experiments:
recombinant rat CD39 = biological target: T1, recombinant rat CD39 (rat, UniProt P97687 38-478, limits assumed); experiment: BLI (Octet), clone 22 captured on AHC biosensor, recombinant rat CD39 as analyte
T1 sequence (looked up): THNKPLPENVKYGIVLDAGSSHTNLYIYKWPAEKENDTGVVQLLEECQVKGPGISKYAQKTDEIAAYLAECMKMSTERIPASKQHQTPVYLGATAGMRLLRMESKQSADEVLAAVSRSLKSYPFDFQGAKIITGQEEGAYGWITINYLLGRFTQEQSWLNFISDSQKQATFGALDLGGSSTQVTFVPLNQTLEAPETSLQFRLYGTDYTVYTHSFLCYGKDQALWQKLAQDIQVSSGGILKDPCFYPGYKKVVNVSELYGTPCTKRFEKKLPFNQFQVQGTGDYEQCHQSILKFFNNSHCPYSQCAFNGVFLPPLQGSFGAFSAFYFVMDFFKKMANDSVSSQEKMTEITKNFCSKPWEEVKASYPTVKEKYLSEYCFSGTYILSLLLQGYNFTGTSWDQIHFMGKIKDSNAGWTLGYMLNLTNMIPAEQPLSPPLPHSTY
Procedure: (§1) In the first configuration, an Anti-Human Immunoglobulin G (IgG) Fragment Crystallizable (Fc) Capture (AHC) biosensor was used first to capture 1 μg/mL of clone 22 as the ligand onto 8 biosensors and subsequently to measure association (600 s) and dissociation (900 s) of 0 to 5 μg/mL of recombinant CD39 from either human, rat, or cynomolgus monkey as the analyte. A second configuration was required for recombinant mouse CD39 binding analysis, as the positive control antibody was a rat IgG and would not bind to the AHC biosensor. Recombinant mouse CD39 binding to clone 22 was analyzed with this second configuration to achieve a direct comparison with the positive control antibody. […] Subsequently, association (600 s) and dissociation (1200 s) of recombinant mouse CD39 (analyte) was measured at a concentration range of 0 to 5.0 μg/mL for both antibodies. […] Under both configurations, association constants (kₐ) and dissociation constants (kd) were determined and KD was calculated for each antibody where binding of the analyte was observed (clone 22 with recombinant CD39 from both human and cynomolgus monkey and Duha59 positive control antibody with recombinant mouse CD39). Kinetic binding parameters were not determined for interactions where binding was not observed (clone 22 with recombinant CD39 from both mouse and rat).

recombinant mouse CD39 = biological target: T2, recombinant mouse CD39 (mouse, UniProt P55772 38-478, limits assumed); experiment: BLI (Octet), clone 22 amine-coupled to AR2G biosensor, recombinant mouse CD39 as analyte
T2 sequence (looked up): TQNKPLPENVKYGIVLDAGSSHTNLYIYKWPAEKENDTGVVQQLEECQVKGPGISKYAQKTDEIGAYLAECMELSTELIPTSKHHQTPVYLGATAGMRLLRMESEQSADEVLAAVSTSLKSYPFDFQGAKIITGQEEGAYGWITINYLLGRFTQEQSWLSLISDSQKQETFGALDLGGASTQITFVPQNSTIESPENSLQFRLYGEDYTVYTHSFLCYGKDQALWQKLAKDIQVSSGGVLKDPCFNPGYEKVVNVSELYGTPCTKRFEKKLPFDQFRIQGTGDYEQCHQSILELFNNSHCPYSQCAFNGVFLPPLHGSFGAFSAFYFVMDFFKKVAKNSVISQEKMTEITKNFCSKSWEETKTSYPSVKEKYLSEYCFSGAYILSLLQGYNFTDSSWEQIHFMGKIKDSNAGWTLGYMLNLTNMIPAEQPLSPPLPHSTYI
Procedure: as §1

recombinant human CD39 = biological target: T3, recombinant human CD39 (human, UniProt P49961 38-478); experiment: BLI (Octet), clone 22 captured on AHC biosensor, recombinant human CD39 as analyte, 1:1 model
T3 construct: The clone 1-20 assays used carrier-free human CD39-His lacking transmembrane domains (R&D Systems 4397-EN-010); also called rhCD39
T3 sequence (looked up): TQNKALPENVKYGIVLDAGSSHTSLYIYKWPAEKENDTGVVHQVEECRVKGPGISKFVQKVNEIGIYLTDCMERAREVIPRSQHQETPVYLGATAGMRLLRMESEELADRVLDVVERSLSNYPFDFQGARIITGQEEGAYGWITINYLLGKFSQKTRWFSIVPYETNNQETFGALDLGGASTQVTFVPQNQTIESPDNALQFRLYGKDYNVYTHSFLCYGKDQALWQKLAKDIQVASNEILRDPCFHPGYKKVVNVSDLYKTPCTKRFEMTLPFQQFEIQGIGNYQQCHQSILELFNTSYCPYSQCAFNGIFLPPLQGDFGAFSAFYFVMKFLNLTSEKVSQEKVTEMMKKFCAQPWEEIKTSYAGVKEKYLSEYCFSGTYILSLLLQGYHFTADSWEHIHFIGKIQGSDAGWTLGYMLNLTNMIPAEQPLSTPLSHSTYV
Procedure: as §1

[1] = biological target: T4, recombinant cynomolgus monkey CD39 (cynomolgus monkey, UniProt A0A7N9DGH8 38-478); experiment: BLI (Octet), clone 22 captured on AHC biosensor, recombinant cynomolgus monkey CD39 as analyte, 1:1 model
T4 sequence: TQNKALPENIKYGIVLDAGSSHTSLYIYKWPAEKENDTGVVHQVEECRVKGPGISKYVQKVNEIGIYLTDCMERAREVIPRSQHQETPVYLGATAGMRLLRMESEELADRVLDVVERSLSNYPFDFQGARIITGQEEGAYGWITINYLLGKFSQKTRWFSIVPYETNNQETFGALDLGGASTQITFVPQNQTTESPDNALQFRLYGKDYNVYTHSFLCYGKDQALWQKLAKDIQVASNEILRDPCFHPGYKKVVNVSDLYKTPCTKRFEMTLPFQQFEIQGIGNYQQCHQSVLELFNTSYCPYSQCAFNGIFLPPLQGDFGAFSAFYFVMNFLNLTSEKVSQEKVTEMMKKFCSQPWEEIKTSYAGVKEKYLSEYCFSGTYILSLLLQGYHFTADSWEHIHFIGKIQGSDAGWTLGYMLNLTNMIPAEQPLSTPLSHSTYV
Procedure: as §1

B1: clone 22 (antibody, human IgG4 S228P, kappa, V domains shown)
VH: QVQLVQSGAEVKKPGSSVKVSCKASGGTFSSEGISWVRQAPGQGLEWMGSILPIFGTANYAQKFQGRVTITADESTSTAYMELSSLRSEDTAVYYCAREAGYYRYRYFDLWGRGTLVTVSS
VL: EIVMTQSPATLSVSPGERATLSCRASQSVSSNLAWYQQKPGQAPRLLIYGASTRATGIPARFSGSGSGTEFTLTISSLQSEDFAVYYCQQHALWPLTFGGGTKVEIKR
notes: Human IgG4 with the S228P mutation and a human kappa light chain; also called anti-CD39 antibody clone 22; antibody clone number 22
**Q.** Does B1 bind (recombinant rat CD39)?
**A.** no binding (tested: 0 to 5 µg/mL recombinant rat CD39)

**Q.** Does B1 bind (recombinant mouse CD39)?
**A.** no binding (tested: 0 to 5.0 µg/mL recombinant mouse CD39)

**Q.** What about the Kd (recombinant human CD39) of the same binder?
**A.** 1110 pM

**Q.** What about the Kd [1] of the same binder?
**A.** 406 pM
